Measured values from patent US20160046684A1, “Methods and compositions for treatment of PTP1B-related diseases” (BROWN UNIVERSITY, priority 2014, published 2016).
Numbering of substitutions follows the chain as printed.

T1: PTP1B1-301 (Homo sapiens, UniProt P18031)
T1 construct: His6 (cleaved yes); made in house; host or cells: E. coli
T1 sequence (P18031 1-301): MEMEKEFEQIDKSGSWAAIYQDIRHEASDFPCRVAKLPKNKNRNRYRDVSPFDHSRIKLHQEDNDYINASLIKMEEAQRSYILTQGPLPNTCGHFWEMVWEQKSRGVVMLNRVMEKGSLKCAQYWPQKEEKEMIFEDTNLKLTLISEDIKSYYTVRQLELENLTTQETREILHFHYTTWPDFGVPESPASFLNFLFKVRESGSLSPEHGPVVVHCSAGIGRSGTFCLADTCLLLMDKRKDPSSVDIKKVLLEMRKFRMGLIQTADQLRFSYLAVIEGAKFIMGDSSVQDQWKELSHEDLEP

B1: PTP1BL192A: PTP1B1-301 mutant with mutation in the α3 helix (protein)
chain: T1 sequence (P18031 1-301) with L192A
modifications: The sequence was designed and synthesized
notes: PTP1B1-301 mutant with mutation in the α3 helix
B2: PTP1BN193A: PTP1B1-301 mutant with mutation in the α3 helix (protein)
chain: T1 sequence (P18031 1-301) with N193A
modifications: The sequence was designed and synthesized
notes: as for B1

Columns and labels:
PTP1B1-301 = target: T1, PTP1B1-301; assay: NMR relaxation (R1, R2, hetNOE) of inhibitor-bound PTP1B1-301; conditions: 1:3 ratio of PTP1B1-301 to inhibitor, compared to apo PTP1B1-301
Experimental: Inhibitors were titrated into 200 μM ^15N-PTP1B at molar ratios of 1:1; 1:2, 1:3, 1:5 and 2D [^1H, ^15N] TROSY spectra at 850 MHz were recorded for each titration point. Inhibitors were solubilized in D6-DMSO at 25 mM. CS for PTP1B in the 2D [^1H, ^15N] TROSY spectrum caused by the addition of D6-DMSO were negligible. Chemical shift differences (Δδ) between PTP1B and inhibitor-bound PTP1B (3:1 molar ratio) spectra were calculated using: […]
Changes in motions of the domains of PTP1B1-301 bound to TCS-401 were measured by detecting nuclear relaxation time data at 500 MHz. See, FIG. 8A and FIG. 8B. Fast-timescale backbone dynamics were measured for ligand-free and inhibitor-bound (at 3:1 molar ratios) PTP1B constructs at either 850 or 500 MHz 1H Larmor frequency. ^15N longitudinal (R1) and transverse (R2) relaxation rates and ^15N [^1H]-NOE (hetNOE) measurements were acquired. The hetNOE measurements were determined from a pair of interleaved spectra acquired with or without pre-saturation, and a recycle delay of 5 seconds (only at 500 MHz ^1H Larmor frequency). Error was determined using signal to noise ratio for a given peak.

[1] = Circular dichroism thermal denaturation (melting temperature); type: physicochemical; conditions: CD spectropolarimetry, thermal denaturation at 208 nm, 2.5 μM protein
Experimental: Circular dichroism (CD) spectropolarimetry was used to measure the melting temperatures of PTP1BYAYA, PTP1B1-301, and PTP1B1-284. CD measurements were performed on a Jasco J-815 CD spectropolarimeter. PTP1B samples were dialyzed at 4° C. into 10 mM sodium phosphate, pH 6.8, 150 mM NaCl. Samples were then diluted to a protein concentration of 2.5 μM and placed in a 0.2-cm glass cuvette. Wavelength scans were performed in the far-UV region from 260 to 195 nm at 25° C. at a speed of 20 nm/min. Thermal denaturation scans were performed at 208 nm from 25 to 90° C. at a scan speed of 1° C./min. Raw data were processed using the denatured protein analysis routine implemented in the SepctraAnalysis software and converted to mean residue molar ellipticity using the following equation: [θ]=θ/(10×C×1×n), where θ is ellipticity, C is the molar concentration, 1 is the cell path length in centimeters, and n is the number of residues. Plots are the average of three replicate scans.

PTP1B = assay: Phosphatase activity of PTP1B constructs against pNPP (enzyme assay); type: biochemical, human; conditions: pNPP substrate, pH 7.5, 0.015 μM PTP1B (FIG. 27, 32A, 32B)
Experimental: Phosphatase activity of PTP1B against the general PTP/DUSP substrate, p-nitrophenyl phosphate (pNPP), was tested in 50 mM HEPES pH 7.5, 150 mM NaCl, 0.5 mM TCEP. 40 μl of enzyme at a 1.5 μM concentration was added to 60 μl of pNPP substrate resuspended in the reaction buffer. See, FIG. 25. The final concentrations of pNPP used in this experiment were […]. The enzyme was incubated with the substrate at 30° C. for 30 min, after which 100 μl of 1 M NaOH was added to a final concentration of 0.5 M NaOH to quench the reaction. Absorbance was measured at 405 nm and the final concentration of p-nitrophenol (pNP) was calculated using the molar extinction coefficient of 18000 M-1 cm-1. A control reaction in which substrate was incubated in the absence of enzyme was subtracted from all other experimental values. All experiments were performed in triplicate.
Enzyme assays were performed at pH 7.5 with 0.15 μM PTP1B to compare the activities of wild-type PTP1B1-301 to mutants with mutations in the L11 loop: PTP1BY152A/F, PTP1BY153A/F, and PTP1BYAYA. See, FIG. 17. […] Ibid. […] Ibid. […] Ibid. […] Ibid. […] Ibid. […] Ibid.
Enzyme assays were performed at pH 7.5 with 0.015 μM PTP1B to compare the activities of wild-type PTP1B1-301 to mutants with mutations in the α3 helix such as PTP1BN193A. See, FIG. 27. […] Ibid. […] Ibid. […] Ibid. […] Ibid. […] Ibid. […] Ibid.
An enzyme assay was used to compare the activity of wild-type PTP1B1-301 to the activity of PTP1B1-284 P185G. See, FIG. 15. Enzyme assays were performed at pH 7.5 with 0.015 μM PTP1B to compare the activities of wild-type PTP1B1-301 to mutants with mutations in the α7 helix. See, FIG. 32A. In one embodiment, these point mutations were made in an amino acid sequence substantially similar to SEQ ID NO: 2.

| Molecule | effect of inhibitor binding on PTP1B1-301 ps-ns backbone dynamics (PTP1B1-301) | melting point (Tm) [1] | Km (PTP1B) | kcat (PTP1B) |
| --- | --- | --- | --- | --- |
| CCc1oc2cc(S(=O)(=O)Nc3ccc(S(=O)(=O)Nc4nccs4)cc3)ccc2c1C(=O)c1cc(Br)c(O)c(Br)c1 [allosteric site inhibitor, 3-(3,5-Dibromo-4-hydroxy-benzoyl)-2-ethyl-benzofuran-6-sulfonic acid-(4-(thiazol-2-ylsulfamyl)-phenyl)-amide] | minimal effect |  |  |  |
| O=C(O)C(=O)Nc1sc2c(c1C(=O)O)CCNC2 [TCS-401] | loss of motions in the α7 helix and part of the WPD loop |  |  |  |
| B1 |  | 53.89 °C | 610 ± 40 µM | 1.86 ± 0.04 s⁻¹ |
| B2 |  | 49.1 °C | 830 ± 70 µM | 1.7 ± 0.06 s⁻¹ |
